{"source": "paper PMC9104182", "target": "photoconvertible fluorescent protein DendFP (Dendronephthya sp)", "assay": "crystal structure; native DendFP crystals, hanging drop at 22 °C, 100 mM Tris-HCl pH 7.5, 0.2 M MgCl2, 20% PEG4000; eight molecules (two tetramers) in the asymmetric unit; interfaces analysed with PISA", "data": [{"substance": "photoconvertible fluorescent protein DendFP (natural protein)", "values": [{"measurement": "stoichiometry N", "value": 4}]}]}
